The values that follow come from the RNAGym collection of RNA variant scans (doi:10.7554/elife.90254).

B1: LINE1-full (parent)
chain: UACGUAGGUGGUUUUCCCCUGAUAGUGCUAAGGGGGCCUGGAAGUUUGGACUGGGCAGAGCUCAACACAGCGUGGCAAAGUGGCUGUGGCUAGACUGCCUCUCUGGAUUCCUCGUCACUCAGCAGGGCAUCUCUGAGAGAAAUGCC

The variants in the series derive from B1. The series can be described thus: self-cleavage, relative activity (ratio to wild type); higher = more cleavage; in vitro, sequencing; the parent is a self-cleaving ribozyme.
For the variant C76G U102C, the self-cleavage was 2.25.

C71A G93U: the self-cleavage was found to be 0.03. In the case of U73C G106A it was 1.7. On to C71U A141G, for which the self-cleavage came out at 0.68. For the variant C71U A141U, the self-cleavage was found to be 1.46. The result for G72U A77G reads 2.19; that for U73C U104G, 1.71. In the case of U73C U104A, the self-cleavage was determined as 1.93. In the case of U73C U104C it was 0.94; in that of U73C A77U, 1.31. As for U73A G88A, the self-cleavage turned out to be 0.07. For the variant G75C U134A, the self-cleavage was determined as 0.49.

Regarding G74A U102C, the self-cleavage was 1.08.

With C76G A141G, the self-cleavage was 2.47. As to U73A U104A, the self-cleavage is 1.09. In the case of U73A U104C it was 1.53; in that of A69U G127C, 0.12; in that of U73A C76U, 2.51.

Turning to U73A C123U, the self-cleavage was determined as 1.3. As for U73A U119A, the self-cleavage stood at 1.59. On to U73A U119C, for which the self-cleavage turned out to be 1.86. The result for U73C C131G reads 1.73; that for U73C C131A, 1.55. For the variant U73C C131U, the self-cleavage came to 1.73.

In the case of G72C A77G, the self-cleavage is 2.28. In the case of U73C G97A it was 0.41; in that of U73A C98U, 0.32; in that of U73C C98A, 0.21. In the case of G72A U102A it was 1.66. The result for G75C U119A reads 0.95; that for G74A U119A, 0.84; that for U73A G86A, 0.04. Take G72A U87A: the self-cleavage stood at 0.07. Consider C71U G144A, for which the self-cleavage was 1.27.

On to U73G A141G, for which the self-cleavage was determined as 1.81. The result for U73C G88U reads 0.13; that for C71G A141G, 0.4. Regarding U73A A79G, the self-cleavage came out at 1.2. In the case of U73A A79C it was 2.16; in that of U73A G82U, 1.65; in that of U73A G82A, 1.74. In the case of G72A A141G it was 1.54. As to G72A A141U, the self-cleavage came out at 1.42. In the case of A69U U115C it was 0.07. With A69U U115A, the self-cleavage stood at 0.07. With U73C U112G, the self-cleavage is 2.63. In the case of U73A G139A it was 1.47; in that of C76G C84A, 0.14.

With C71U U73A, the self-cleavage is 0.31. The result for C71U U73C reads 0.1; that for G74A U109C, 0.7; that for C71U U119C, 1.18. The result for G72C C111U reads 1.1; that for G72U C145G, 0.94.

On to U73C C116U, for which the self-cleavage is 1.39.

In the case of C71A C133U, the self-cleavage was 0.08. The result for U73C U87A reads 0.31.

With U73C U87C, the self-cleavage came to 0.2. As for C76A A124G, the self-cleavage was determined as 0.92.

For the variant U73A G80A, the self-cleavage came out at 2.16. In the case of G72U U73A it was 1.33; in that of U73A G126A, 0.57; in that of G72A C84U, 0.19. As to G74A U81C, the self-cleavage was 0.78. Take G70U A140G: the self-cleavage came out at 0.04. Take C71U U102C: the self-cleavage turned out to be 0.18. As to U73C A142G, the self-cleavage worked out at 1.82. Consider U73C A142U, for which the self-cleavage stood at 1.24. In the case of U73C C113A it was 1.4. The result for G70A C128A reads 0.04. The result for U73A U102C reads 0.97; that for U73G U119C, 1.57. For the variant C71U A124G, the self-cleavage was found to be 0.28. In the case of C71U A124U it was 1; in that of G70A U100C, 0.29; in that of C71U A117G, 0.64. Consider A69U G93A, for which the self-cleavage worked out at 0.03. In the case of G75U A78U it was 1.49. The result for G74A reads 0.95.

Regarding G74C, the self-cleavage was 1.6.

As to G74U, the self-cleavage is 1.4.

For A69U G97A, the self-cleavage amounted to 0.03. For G72U A94G, the self-cleavage worked out at 0.46. In the case of U73C C101U it was 1.01; in that of A69U G114U, 0.06. For the variant G75A A129G, the self-cleavage amounted to 1.61. The result for G75A A129U reads 1.13; that for U73C C76U, 2.52. In the case of C76A U143A it was 1.65; in that of A69U G89U, 0.02. G72A U85A: the self-cleavage turned out to be 0.07. In the case of G72A U85G it was 0.21; in that of U73A, 1.46; in that of U73C, 1.72.

For U73G, the self-cleavage was 1.29. In the case of G74A U134C it was 1.1; in that of G72C U112C, 0.98; in that of U73A U130A, 1.83. The result for U73A U130C reads 1.82; that for A69U U87A, 0.04. As to A69U U87C, the self-cleavage turned out to be 0.06.

G72A G135U: the self-cleavage turned out to be 1.2. In the case of G70A A142G it was 0.11; in that of G75U U109C, 0.7; in that of G74A U130C, 0.87. In the case of G72A A92U it was 0.69. For G70A U115G, the self-cleavage is 0.11. The result for C71U A77U reads 0.7; that for G70C A77U, 0.09. As for G75A G105U, the self-cleavage was 0.67. The result for C71U C146U reads 0.66. The result for U73C U134C reads 1.87. Regarding U73C U134A, the self-cleavage is 1.54. In the case of G72A A129G it was 1.67; in that of C71U U134A, 0.36; in that of A69U U85A, 0.5. G72U U87C: the self-cleavage was 0.32.

U73C A129C: the self-cleavage turned out to be 1.36. As for U73C A129G, the self-cleavage was determined as 1.98. The result for C76U A107U reads 2.27; that for U73A U132G, 2.06; that for G72U U130A, 1.07. As to U73C A141U, the self-cleavage turned out to be 1.53. The result for U73C A141G reads 1.62; that for U73G A136G, 1.84. For the variant G74A U115C, the self-cleavage came to 1.46.

G72U A140G: the self-cleavage stood at 0.6.

As to U73G U115A, the self-cleavage worked out at 1.12. With G70U C90G, the self-cleavage came out at 0.02. In the case of G74A G144A it was 1.09; in that of G72U C113U, 1.15; in that of U73C U100A, 1.81.

For the variant U73C U100C, the self-cleavage was found to be 1.99. The result for G72U U132C reads 1.11; that for U73C G125U, 2.15.

For U73G U104C, the self-cleavage was 2.

As to G75A A79G, the self-cleavage was 0.83.

C71U U109A: the self-cleavage was 0.41. With G70A A138C, the self-cleavage stood at 0.32.

Consider U73C U109C, for which the self-cleavage worked out at 0.31.

As to U73A U109A, the self-cleavage was 0.92.

Turning to G75A G82U, the self-cleavage was determined as 1.07. The result for G74U A117U reads 1.79.

U73G A92G: the self-cleavage is 0.36. As to G70A U85G, the self-cleavage stood at 0.01. Regarding U73G A142U, the self-cleavage was determined as 0.61. The result for U73C G75U reads 0.78. As for U73A C110A, the self-cleavage was 0.94. In the case of C71U it was 0.86; in that of C71G, 0.27; in that of C71A, 0.2. For the variant C71A U73C, the self-cleavage came out at 0.31. The result for G72A G83A reads 1.53. For the variant G72A U143C, the self-cleavage turned out to be 1.65. In the case of C71U C101A it was 1.14. Take G72A U108C: the self-cleavage was 1.54. In the case of G70A A129G, the self-cleavage came to 0.09.

On to U73C G114A, for which the self-cleavage amounted to 1.54. The result for G74A U143A reads 1.72; that for G74A U143G, 2.27. In the case of G70A U132G it was 0.19; in that of U73C U85G, 0.21; in that of U73C U85C, 0.08. In the case of U73C C90A it was 0.06; in that of G75A U100A, 0.42; in that of G75A U100C, 1.5. Take G74U A94G: the self-cleavage was 0.15.
